Biological target: nck1_human NCK1 (UniProt P16333)

Substance | effect of a mutation on the interaction
BDNF/NT-3 growth factors receptor (Rattus norvegicus (Rat)), Q63604 Y706F | disrupting interaction strength
BDNF/NT-3 growth factors receptor (Rattus norvegicus (Rat)), Q63604 Y782F | disrupting interaction strength
BDNF/NT-3 growth factors receptor (Rattus norvegicus (Rat)), Q63604 Y701F | with no effect
BDNF/NT-3 growth factors receptor (Rattus norvegicus (Rat)), Q63604 Y515F | with no effect
BDNF/NT-3 growth factors receptor (Rattus norvegicus (Rat)), Q63604 Y816F | with no effect

The remaining lines, values ahead:

effect of a mutation on the interaction | Substance
disrupting interaction strength | BDNF/NT-3 growth factors receptor (Rattus norvegicus (Rat)), Q63604 Y705F
with no effect | BDNF/NT-3 growth factors receptor (Rattus norvegicus (Rat)), Q63604 Y726F
disrupting interaction strength | BDNF/NT-3 growth factors receptor (Rattus norvegicus (Rat)), Q63604 K571F

Reference: IntAct's records for PubMed 12074588
